Data reported in patent publication US20220280615A1.

B1: iTEP56-IBD (designed binder)
chain: GVLPGVGGVLPGVGGVLPGVGGVLPGVGGVLPGVGGVLPGVGGVLPGVGGVLPGVGGVLPGVGGVLPGVGGVLPGVGGVLPGVGGVLPGVGGVLPGVGGVLPGVGGVLPGVGGVLPGVGGVLPGVGGVLPGVGGVLPGVGGVLPGVGGVLPGVGGVLPGVGGVLPGVGGVLPGVGGVLPGVGGVLPGVGGVLPGVGGVLPGVGGVLPGVGGVLPGVGGVLPGVGGVLPGVGGVLPGVGGVLPGVGGVLPGVGGVLPGVGGVLPGVGGVLPGVGGVLPGVGGVLPGVGGVLPGVGGVLPGVGGVLPGVGGVLPGVGGVLPGVGGVLPGVGGVLPGVGGVLPGVGGVLPGVGGVLPGVGGVLPGVGGVLPGVGGVLPGVGGVLPGVGGVLPGVGGVLPGVGGGGGSTTYKLVINGKTLKGETTTKAVDAETAEKAFKQYANDNGVDGVWTYDDATKTFTVTE
B2: iTEP28-IBD (designed binder)
chain: GVLPGVGGVLPGVGGVLPGVGGVLPGVGGVLPGVGGVLPGVGGVLPGVGGVLPGVGGVLPGVGGVLPGVGGVLPGVGGVLPGVGGVLPGVGGVLPGVGGVLPGVGGVLPGVGGVLPGVGGVLPGVGGVLPGVGGVLPGVGGVLPGVGGVLPGVGGVLPGVGGVLPGVGGVLPGVGGVLPGVGGVLPGVGGVLPGVGGGGGSTTYKLVINGKTLKGETTTKAVDAETAEKAFKQYANDNGVDGVWTYDDATKTFTVTE
B3: iTEP112-IBD (designed binder)
chain: GVLPGVGGVLPGVGGVLPGVGGVLPGVGGVLPGVGGVLPGVGGVLPGVGGVLPGVGGVLPGVGGVLPGVGGVLPGVGGVLPGVGGVLPGVGGVLPGVGGVLPGVGGVLPGVGGVLPGVGGVLPGVGGVLPGVGGVLPGVGGVLPGVGGVLPGVGGVLPGVGGVLPGVGGVLPGVGGVLPGVGGVLPGVGGVLPGVGGVLPGVGGVLPGVGGVLPGVGGVLPGVGGVLPGVGGVLPGVGGVLPGVGGVLPGVGGVLPGVGGVLPGVGGVLPGVGGVLPGVGGVLPGVGGVLPGVGGVLPGVGGVLPGVGGVLPGVGGVLPGVGGVLPGVGGVLPGVGGVLPGVGGVLPGVGGVLPGVGGVLPGVGGVLPGVGGVLPGVGGVLPGVGGVLPGVGGVLPGVGGVLPGVGGVLPGVGGVLPGVGGVLPGVGGVLPGVGGVLPGVGGVLPGVGGVLPGVGGVLPGVGGVLPGVGGVLPGVGGVLPGVGGVLPGVGGVLPGVGGVLPGVGGVLPGVGGVLPGVGGVLPGVGGVLPGVGGVLPGVGGVLPGVGGVLPGVGGVLPGVGGVLPGVGGVLPGVGGVLPGVGGVLPGVGGVLPGVGGVLPGVGGVLPGVGGVLPGVGGVLPGVGGVLPGVGGVLPGVGGVLPGVGGVLPGVGGVLPGVGGVLPGVGGVLPGVGGVLPGVGGVLPGVGGVLPGVGGVLPGVGGVLPGVGGVLPGVGGVLPGVGGVLPGVGGVLPGVGGVLPGVGGVLPGVGGVLPGVGGVLPGVGGVLPGVGGVLPGVGGVLPGVGGGGGSTTYKLVINGKTLKGETTTKAVDAETAEKAFKQYANDNGVDGVWTYDDATKTFTVTE

These binders were tested against Human IgG (polyclonal, Innovative Research) (human) (assay: depot trapping: polypeptide mixed with fluorescein-labeled human IgG (1 mg/mL), 37 °C, centrifuged, pellet fluorescence; molar ratio 8 or higher).

percent of IgG in depots	Binder
90%	B1
55%	B2
90%	B3
